Measurements published in publication PMC9704693.

Target: extracellular fragment of lymphotoxin-beta receptor (LTβR) (629-LR-100, R&D Systems) (UniProt P36941)
Experiment: SPR

Question: With “Ixodes persulcatus salivary protein (IpSAP), recombinant (natural protein)” as the substance, how does the Kd read?
Answer: Its Kd is 124 nM.
